± gives the standard deviation.
Assay: protein stability index of a GFP-peptide fusion (GPS, HEK-293T) (PSI 1-6); higher = more stable
[1] = treatment: DMSO, c terminus: a fixed tail appended
[2] = treatment: MLN4924 1 uM, 8 h, c terminus: a fixed tail appended
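Also: 24-mer peptide tiles fused after GFP, lentivirally expressed, FACS-sorted into six equal bins by GFP/DsRed ratio, decoded by Illumina sequencing, PSI is the read-weighted mean bin number.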

Row | Sequence | protein stability index [1] | protein stability index [2] | protein stability index (treatment: DMSO, c terminus: native) | protein stability index (treatment: MLN4924 1 uM, 8 h, c terminus: native)
1 | RGSVARPTQGPETPRSPEGTTEAA [PXN] | 5.39 ± 0.3 | 5.31 ± 0.17 |  | 
2 | RAGEQRKRSQSMKSYPSSELRNMC [CLCN6] | 4.29 ± 0.078 | 4.37 ± 0.21 |  | 
3 | FLQALSLAVDKQFEERKKLAAYI [TRIP13] |  |  | 3.18 ± 0.71 | 2.54 ± 0.51
4 | VIVMTTRFEEGGRRKCGQYWPLEK [PTPN9] | 2.12 ± 0.75 | 2.47 ± 0.57 |  | 
5 | QQQQAMSFAILRIIRLVRVFRIFK [KCNA4] | 2.71 ± 0.24 | 3.01 ± 0.26 |  | 
6 | SPNTPQPVPEQSALCQGLYFHINQ [FAM104A] | 3 ± 0.15 | 3.16 ± 0.33 |  | 
7 | AAPFPSPAPASPAISVVGVSAGGH [TFE3] | 4.24 ± 0.35 | 4.16 ± 0.38 |  | 
8 | EFLRVQEERILHQQVKCIITEEKV [VPS39] | 3.08 ± 0.26 | 2.92 ± 0.3 |  | 
9 | HKKDCAREKPFKCQECGKTFRVSS [ZNF75A] | 3.45 ± 0.38 | 3.65 ± 0.41 |  | 
10 | QQCMLEILDTAGTEQFTAMRDLYM [RAP1B] | 2.53 ± 0.25 | 2.6 ± 0.2 |  | 
11 | KVMIFKSSYSLSDMVSNIELPTRI [MIA2] | 1.88 ± 0.56 | 2.17 ± 0.12 |  | 
12 | LGGRALMNCLPSNRTLWRLDLAGN [LRRC45] | 2.5 ± 0.41 | 2.32 ± 0.28 |  | 
13 | SIRDANLYVSGLPKTMSQKEMEQL [ELAVL3] | 4.4 ± 0.061 | 4.27 ± 0.2 |  | 
14 | MYFSQEEWELLDPTQKALYNDVMQ [ZNF75A] | 3.67 ± 0.08 | 3.74 ± 0.33 |  | 
15 | MAPKTKKGCKVTLPEKPVKLASHT [FBF1] | 4.16 ± 0.15 | 4.21 ± 0.087 |  | 
16 | MERSPDVSPGPSRSFKEELLCAVC [TRIM35] | 3.47 ± 0.18 | 3.6 ± 0.25 |  | 
17 | LCCEWLRPEKHTKEQILEFLVLEQ [ZNF232] | 2.23 ± 0.31 | 2.24 ± 0.27 |  | 
18 | NARGASIFSVTALDPDSKENAQII [PCDHGA10] | 3.75 ± 0.12 | 3.97 ± 0.24 |  | 
19 | SLIILHLSGATKKGTEKQTTSETQ [NETO1] | 2.35 ± 0.26 | 2.27 ± 0.56 |  | 
20 | LQDLQVTDILPQMITLSEAYIQIW [USP39] | 2.58 ± 0.54 | 2.55 ± 0.77 |  | 
21 | NITRLQLETEIEALKEELLFMKKN [KRT18] | 2.82 ± 0.091 | 3.05 ± 0.51 |  | 
22 | DKDKSDDRMARPSGRSGHNTRGTG [CSNK1G3] | 5.6 ± 0.29 | 5.43 ± 0.52 |  | 

Row | Sequence | protein stability index [1] | protein stability index [2] | protein stability index (treatment: DMSO, c terminus: native) | protein stability index (treatment: MLN4924 1 uM, 8 h, c terminus: native)
23 | WLPLATLIDEKVLILHGGVSDITD [PPEF2] | 2.22 ± 0.64 | 2.4 ± 0.58 |  | 
24 | SANFHSLDDIYYFGGQNAHNQIAI [FUT8] | 2.4 ± 0.72 | 2.3 ± 0.24 |  | 
25 | ALLGYEMVQVACGASHVLALSTER [NEK8] | 2.5 ± 0.88 | 2.12 ± 0.44 |  | 
26 | SDTIPYLKKFLYNFDNPWNFQNIP [MIA2] | 2.28 ± 0.84 | 2.5 ± 0.59 |  | 
27 | SSHLQSSKAGPTRIFTSNTHSSVV [KLHL13] | 3.52 ± 0.22 | 3.52 ± 0.2 |  | 
28 | MDGRMEAATRGGSHLQAAAQTPPR [SCNN1D] | 4.92 ± 0.39 | 4.93 ± 0.061 |  | 
29 | QLAAVHLSKSRTDYQPTQAGRLMR [RNF180] | 3.5 ± 0.18 | 3.52 ± 0.26 |  | 
30 | ERYQKIGDTKRATPIEVLCENFPE [CSNK1G3] | 4.59 ± 0.11 | 4.44 ± 0.28 |  | 
31 | LLPYFYIIYMAILLTHRCLRDEHR [DHCR7] | 3.25 ± 0.52 | 3.05 ± 0.2 |  | 
32 | SLIRKHAQTFIALCATDFKFAMYP [CCND2] | 3.01 ± 0.18 | 2.97 ± 0.51 |  | 
33 | ATDNYDIGFGVYFEWTDSPNTAVS [ACBD3] | 2.21 ± 0.16 | 2.25 ± 0.48 |  | 
34 | PSSQLMPVKKQLQGASWELQSLRP [ZNF396] | 3.66 ± 0.34 | 3.78 ± 0.25 |  | 
35 | MFQGWNCGDYFPDGITNGASWYSL [CPN1] | 2.7 ± 0.37 | 2.31 ± 0.45 |  | 
36 | TQKFTDMVATANNRQTFVNSAIRF [CHIT1] | 2.85 ± 0.32 | 3.17 ± 0.33 |  | 
37 | QAIQMRLVDVACKHLTDTSHGVRN [INTS4] | 2.52 ± 0.4 | 2.52 ± 0.23 |  | 
38 | KEENEAESDVKHRTRDYKKTSLAP [PRIM1] | 5.37 ± 0.23 | 5.37 ± 0.41 |  | 
39 | DNSPTSNSLEGGTDATAFWWGEWT [ADAMTSL2] | 3.62 ± 0.35 |  |  | 
40 | AQRVKEVLPHVPLGVIQRDLAKTG [AUP1] | 3.81 ± 0.42 | 3.85 ± 0.17 |  | 
41 | ALGIYGAPYAAAAAAQSYPGYLPY [IRX6] | 2.23 ± 0.14 | 2.19 ± 0.27 |  | 
42 | ENILSFMSYDEISQLRLVCKRMDL [FBXO28] | 2.32 ± 0.21 | 2.35 ± 0.28 |  | 
43 | RSVQNFRFFASSSLHHTSECTQMD [ALDH8A1] | 3.14 ± 0.24 | 3.29 ± 0.33 |  | 
44 | FTGRDSITCLTCQGTGYIPTEQVN [TMEM106C] | 2.66 ± 0.57 | 3.31 ± 0.65 |  | 
